Data from the supplement of paper PMC7125110.
± gives the standard error. Variants at the floor of the assay were thinned out.

B1: glmS ribozyme (parent)
chain: AUAAAAGCGCCAGAACUACAGAAAUGUAGUUGACGAGGAGGAGGUUUAUCGAAUUUUCGGCGGAUGCCUCCAAA

Experiments:
Details in all cases: with glucosamine-6-phosphate
[1] = variants of: B1; test: self-cleavage kobs at 40 uM GlcN6P; higher = faster cleavage; RNA array
How it was run: (§1)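 In situ transcription by E. coli RNA polymerase produced barcoded ribozyme variants on sequenced MiSeq chips, and a hybridised Cy3 probe tracked them at 37 °C. Glucosamine-6-phosphate was flowed in at 40 μM to 10 mM in HEPES/KCl/Mg(OAc)2 buffer. kcat and KM were taken from weighted Michaelis–Menten fits of kobs values from exponential decay fits.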

[2] = variants of: B1; test: self-cleavage kobs at 640 uM GlcN6P; higher = faster cleavage; RNA array
How it was run: as §1

[3] = variants of: B1; test: self-cleavage kobs at 10000 uM GlcN6P; higher = faster cleavage; RNA array
How it was run: as §1

[4] = variants of: B1; test: self-cleavage kobs at 160 uM GlcN6P; higher = faster cleavage; RNA array
How it was run: as §1

[5] = variants of: B1; test: self-cleavage kobs at 2500 uM GlcN6P; higher = faster cleavage; RNA array
How it was run: as §1

| Variant | self-cleavage kobs at 40 uM GlcN6P [1] [s⁻¹] | self-cleavage kobs at 640 uM GlcN6P [2] [s⁻¹] | self-cleavage kobs at 10000 uM GlcN6P [3] [s⁻¹] | self-cleavage kobs at 160 uM GlcN6P [4] [s⁻¹] | self-cleavage kobs at 2500 uM GlcN6P [5] [s⁻¹] |
| --- | --- | --- | --- | --- | --- |
| G43A U69G | < 1e-05 | < 1e-05 | < 1e-05 | – | – |
| A39U G51U C67U | < 1e-05 | < 1e-05 | < 1e-05 | < 1e-05 | < 1e-05 |
| A39U G44A C71A | < 1e-05 | – | – | < 1e-05 | – |
| G40A G63A | < 1e-05 | – | < 1e-05 | – | < 1e-05 |
| G43C U56A C61G | < 1e-05 | – | < 1e-05 | – | – |
| G40C U57A | < 1e-05 | – | – | < 1e-05 | – |
| A42U G62U | < 1e-05 | < 1e-05 | – | < 1e-05 | < 1e-05 |
| G41U A42U C50G | < 1e-05 | < 1e-05 | – | – | – |
| G43A G63U | < 1e-05 | < 1e-05 | – | < 1e-05 | – |
| A39U G66A | 0.000403 ± 0.00015 | 0.00167 ± 0.00076 | 0.0134 ± 0.0056 | 0.000797 ± 0.00024 | 0.00655 ± 0.0022 |
| G43C U47A | < 1e-05 | < 1e-05 | – | – | < 1e-05 |
| G41A U49C | < 1e-05 | < 1e-05 | – | < 1e-05 | < 1e-05 |
| A42G G43U C70U | < 1e-05 | – | < 1e-05 | – | – |
| A39G U47G | 0.000644 ± 0.0001 | 0.00207 ± 0.00049 | 0.0237 ± 0.0069 | – | 0.0155 ± 0.0035 |
| A39G U47C | 0.000381 ± 6e-05 | 0.00353 ± 0.0012 | 0.0217 ± 0.0054 | – | 0.00728 ± 0.0026 |
| A39U A42G U56G A64C | < 1e-05 | – | 4.69e-05 ± 1.8e-05 | – | – |
| A42C U47G | < 1e-05 | – | – | – | < 1e-05 |
| A42C A52U C61U | < 1e-05 | < 1e-05 | – | – | – |
| A42G C50U G63U C71G | < 1e-05 | – | < 1e-05 | – | – |
| A42U G44A U65G | < 1e-05 | < 1e-05 | < 1e-05 | < 1e-05 | < 1e-05 |
| G41C U49A | < 1e-05 | < 1e-05 | – | < 1e-05 | < 1e-05 |
